{"source": "patent US20210188958A1", "about": "(JILIN UNIVERSITY, published 2021)", "binders": {"B1": {"name": "WN10-1H9-Ab (antibody, V domains shown)", "VH": "QVQLQQPGSELVRPGASVKLSCKASGYTFTSYWMHWVKQRPGQGLEWIGNISPGSGNTNYDEKFKTKATLTVDTSSSTAYMQLSSLTSEDSAVYYCTRHGTVDYWGQGTTVTVSS", "VL": "not shown", "notes": "Mouse monoclonal antibody; It was used as hybridoma supernatant in the ELISAs; also called 1H9 monoclonal antibody; monoclonal antibody generated by hybridoma cell line WN10-1H9 (CGMCC No. 18316)"}}, "assay_in_all_cases": "indirect ELISA, peptide coated at 0.25 ug/well", "key": {"[1]": {"target": "T1, synthetic peptide W13 (Trichinella spiralis)", "T1 construct": "also called Ts-WN10-W13", "T1 peptide": "DVYKNCSGSGDSKVC"}, "[2]": {"target": "T2, synthetic peptide W14 (Trichinella spiralis)", "T2 construct": "also called Ts-WN10-W14", "T2 peptide": "VEYKYFDPTKSTVEC"}, "[3]": {"target": "T3, synthetic peptide W2 (Trichinella spiralis)", "T3 construct": "also called Ts-WN10-W2", "T3 peptide": "VNCQGEGRRKHCTME"}, "[4]": {"target": "T4, synthetic peptide W3 (Trichinella spiralis)", "T4 construct": "also called Ts-WN10-W3", "T4 peptide": "TMEYTHRNPSKATVS"}, "[5]": {"target": "T5, synthetic peptide W4 (Trichinella spiralis)", "T5 construct": "also called Ts-WN10-W4", "T5 peptide": "TVSKCFEEVEEPLII"}, "[6]": {"target": "T6, synthetic peptide W1 (Trichinella spiralis)", "T6 construct": "also called Ts-WN10-W1", "T6 peptide": "ALFSSDLKQESGVFH"}, "[7]": {"target": "T7, synthetic peptide W8 (Trichinella spiralis)", "T7 construct": "also called Ts-WN10-W8", "T7 peptide": "CTLEYRHRTPSTATV"}, "[8]": {"target": "T8, synthetic peptide W9 (Trichinella spiralis)", "T8 construct": "also called Ts-WN10-W9", "T8 peptide": "EEQVVSQRSQMLGGT"}, "[9]": {"target": "T9, synthetic peptide W12 (Trichinella spiralis)", "T9 construct": "also called Ts-WN10-W12", "T9 peptide": "EKAFNSYEDVYKNCS"}, "[10]": {"target": "T10, synthetic peptide W5 (Trichinella spiralis)", "T10 construct": "also called Ts-WN10-W5", "T10 peptide": "QILGETTHYGRNDP"}, "[11]": {"target": "T11, synthetic peptide W10 (Trichinella spiralis)", "T11 construct": "also called Ts-WN10-W10", "T11 peptide": "IFESDKKKSSGTYLL"}, "[12]": {"target": "T12, synthetic peptide W11 (Trichinella spiralis)", "T12 construct": "also called Ts-WN10-W11", "T12 peptide": "KETECGIKEKAFNSY"}, "[13]": {"target": "T13, synthetic peptide W6 (Trichinella spiralis)", "T13 construct": "also called Ts-WN10-W6", "T13 peptide": "ALFSSDSKEQSGVLH"}, "[14]": {"target": "T14, synthetic peptide W7 (Trichinella spiralis)", "T14 construct": "also called Ts-WN10-W7", "T14 peptide": "HKLVELEESSTMGIL"}}}
{"binder": "B1", "values": [{"measurement": "OD 450 nm", "setting": "[1]", "result": 0.166, "unit": "OD 450 nm"}, {"measurement": "OD 450 nm", "setting": "[2]", "result": 0.158, "unit": "OD 450 nm"}, {"measurement": "OD 450 nm", "setting": "[3]", "result": 1.15, "unit": "OD 450 nm"}, {"measurement": "OD 450 nm", "setting": "[4]", "result": 0.149, "unit": "OD 450 nm"}, {"measurement": "OD 450 nm", "setting": "[5]", "result": 0.171, "unit": "OD 450 nm"}, {"measurement": "OD 450 nm", "setting": "[6]", "result": 0.0733, "unit": "OD 450 nm"}, {"measurement": "OD 450 nm", "setting": "[7]", "result": 0.152, "unit": "OD 450 nm"}, {"measurement": "OD 450 nm", "setting": "[8]", "result": 0.144, "unit": "OD 450 nm"}, {"measurement": "OD 450 nm", "setting": "[9]", "result": 0.16, "unit": "OD 450 nm"}, {"measurement": "OD 450 nm", "setting": "[10]", "result": 0.286, "unit": "OD 450 nm"}, {"measurement": "OD 450 nm", "setting": "[11]", "result": 0.161, "unit": "OD 450 nm"}, {"measurement": "OD 450 nm", "setting": "[12]", "result": 0.147, "unit": "OD 450 nm"}, {"measurement": "OD 450 nm", "setting": "[13]", "result": 0.127, "unit": "OD 450 nm"}, {"measurement": "OD 450 nm", "setting": "[14]", "result": 0.162, "unit": "OD 450 nm"}]}
